Assay results published in patent US20240252614A1.

Key:
Details in all cases: remark: other sources report otherwise
[1] = molecular target: hMPV063 (hMPV A), Q6WB98; assay: BLI, 53C stress
[2] = molecular target: hMPV062 (hMPV A), Q6WB98; assay: BLI, 53C stress
[3] = molecular target: hMPV053 (hMPV A), Q6WB98; assay: BLI, 53C stress
[4] = molecular target: hMPV045 (hMPV A), Q6WB98; assay: BLI, 53C stress
[5] = molecular target: hMPV068 (hMPV A), Q6WB98; assay: BLI, 53C stress
[6] = molecular target: hMPV046 (hMPV A), Q6WB98; assay: BLI, 53C stress
[7] = molecular target: hMPV058 (hMPV A), Q6WB98; assay: BLI, 53C stress
[8] = molecular target: hMPV054 (hMPV A), Q6WB98; assay: BLI, 53C stress
[9] = molecular target: hMPV069 (hMPV A), Q6WB98; assay: BLI, 53C stress
[10] = molecular target: hMPV050 (hMPV A), Q6WB98; assay: BLI, 53C stress
[11] = molecular target: hMPV043 (hMPV A), Q6WB98; assay: BLI, 53C stress
[12] = molecular target: hMPV067 (hMPV A), Q6WB98; assay: BLI, 53C stress
[13] = molecular target: hMPV075 (hMPV A), Q6WB98; assay: BLI, 53C stress
[14] = molecular target: hMPV A F WT Control (hMPV A), Q6WB98; assay: BLI, 53C stress
[15] = molecular target: hMPV071 (hMPV A), Q6WB98; assay: BLI, 53C stress
[16] = molecular target: hMPV077 (hMPV A), Q6WB98; assay: BLI, 53C stress
[17] = molecular target: hMPV044 (hMPV A), Q6WB98; assay: BLI, 53C stress
[18] = molecular target: hMPV059 (hMPV A), Q6WB98; assay: BLI, 53C stress
[19] = molecular target: hMPV047 (hMPV A), Q6WB98; assay: BLI, 53C stress
[20] = molecular target: hMPV049 (hMPV A), Q6WB98; assay: BLI, 53C stress
[21] = molecular target: hMPV060 (hMPV A), Q6WB98; assay: BLI, 53C stress
[22] = molecular target: hMPV066 (hMPV A), Q6WB98; assay: BLI, 53C stress
[23] = molecular target: hMPV048 (hMPV A), Q6WB98; assay: BLI, 53C stress
[24] = molecular target: hMPV052 (hMPV A), Q6WB98; assay: BLI, 53C stress
[25] = molecular target: hMPV055 (hMPV A), Q6WB98; assay: BLI, 53C stress
[26] = molecular target: hMPV061 (hMPV A), Q6WB98; assay: BLI, 53C stress
[27] = molecular target: hMPV086 (hMPV A), Q6WB98; assay: BLI, no stress
[28] = molecular target: hMPV084 (hMPV A), Q6WB98; assay: BLI, no stress
[29] = molecular target: hMPV080 (hMPV A), Q6WB98; assay: BLI, 68C stress
[30] = molecular target: hMPV A F WT Control (hMPV A), Q6WB98; assay: BLI, 68C stress
[31] = molecular target: hMPV082 (hMPV A), Q6WB98; assay: BLI, 58C stress
[32] = molecular target: hMPV083 (hMPV A), Q6WB98; assay: BLI, 58C stress
[33] = molecular target: hMPV087 (hMPV A), Q6WB98; assay: BLI, 58C stress
[34] = molecular target: hMPV079 (hMPV A), Q6WB98; assay: BLI, 58C stress
[35] = molecular target: hMPV078 (hMPV A), Q6WB98; assay: BLI, 58C stress
[36] = molecular target: hMPV088 (hMPV A), Q6WB98; assay: BLI, 58C stress
[37] = molecular target: hMPV089 (hMPV A), Q6WB98; assay: BLI, 58C stress
[38] = molecular target: hMPV086 (hMPV A), Q6WB98; assay: BLI, 58C stress
[39] = molecular target: hMPV A F WT Control (hMPV A), Q6WB98; assay: BLI, 58C stress
[40] = molecular target: hMPV084 (hMPV A), Q6WB98; assay: BLI, 58C stress
[41] = molecular target: hMPV097 (hMPV A), Q6WB98; assay: BLI, 58C stress
[42] = molecular target: hMPV085 (hMPV A), Q6WB98; assay: BLI, 58C stress
[43] = molecular target: hMPV081 (hMPV A), Q6WB98; assay: BLI, 58C stress
[44] = molecular target: hMPV090 (hMPV A), Q6WB98; assay: BLI, 58C stress

B1: MPE8 mAb (antibody, V domains shown)
VH: EVQLVESGGGLVKPGGSLRLSCAASGFTFSSYSMNWVRQAPGKGLEWVSSISASSSYSDYADSAKGRFTISRDNAKTSLFLQMNSLRAEDTAIYFCARARATGYSSITPYFDIWGQGTLVTVSS
VL: QSVVTQTPSVSGAPGQRVTISCTGSSSNIGAGYDVHWYQQLPGTAPKLLIYDNNNRPSGVPDRFSASKSGTSASLAITGLQAEDEADYYCQSYDRNLSGVFGTGTKVTVL
[1]
  Response Shift: -0.008 nm
[2]
  Response Shift: 0.006 nm
[3]
  Response Shift: -0.032 nm
[4]
  Response Shift: -0.025 nm
[5]
  Response Shift: 0.002 nm
[6]
  Response Shift: -0.012 nm
[7]
  Response Shift: -0.05 nm
[8]
  Response Shift: -0.064 nm
[9]
  Response Shift: -0.003 nm
[10]
  Response Shift: -0.014 nm
[11]
  Response Shift: 0.01 nm
[12]
  Response Shift: -0.041 nm
[13]
  Response Shift: -0.069 nm
[14]
  Response Shift: -0.017 nm
[15]
  Response Shift: -0.039 nm
[16]
  Response Shift: -0.041 nm
[17]
  Response Shift: 0.534 nm
[18]
  Response Shift: -0.039 nm
[19]
  Response Shift: -0.051 nm
[20]
  Response Shift: -0.065 nm
[21]
  Response Shift: -0.06 nm
[22]
  Response Shift: -0.003 nm
[23]
  Response Shift: -0.056 nm
[24]
  Response Shift: -0.045 nm
[25]
  Response Shift: -0.078 nm
[26]
  Response Shift: -0.059 nm
[27]
  Response Shift: 0.834 nm
[28]
  Response Shift: 0.924 nm
[29]
  Response Shift: -0.075 nm
[30]
  Response Shift: 0.025 nm
[31]
  Response Shift: 0.928 nm
[32]
  Response Shift: 0.768 nm
[33]
  Response Shift: 0.805 nm
[34]
  Response Shift: 0.867 nm
[35]
  Response Shift: 0.939 nm
[36]
  Response Shift: 0.812 nm
[37]
  Response Shift: 0.917 nm
[38]
  Response Shift: 0.736 nm
[39]
  Response Shift: 0.006 nm
[40]
  Response Shift: 0.665 nm
[41]
  Response Shift: 0.918 nm
[42]
  Response Shift: 0.757 nm
[43]
  Response Shift: 0.945 nm
[44]
  Response Shift: 0.906 nm
